Experimental data taken from the DeepSol protein solubility set.

assay: soluble on expression in E. coli; label from the status in PepcDB or PDB records

| Sequence | soluble on expression in E. coli |
| --- | --- |
| MAHHHHHHMRTHKTHAYIQAHCLCDFYLTYCAGWVGAIKADGSGQPREPSNGVFGCVRDYIFHQMLDAVHGSSKVFFCDAHAAAVLNCSLRLHDLMERGVTLLEDLMAPRQPIMSSFTPYFFAVEDACVSCVVEDWMAKVPYRDVHIFALGCAPHRSPQQLPRSRIAPRVMRFKEMMLDFTATEALVFHPNMQNGLPQLLSPLSPPT | not soluble |
| MARVYVSTVVNARNDRVWARVRDFNGLPNWHPAIAESRIEGGEPSDKIGCVRDFRLRNGDRIREKLLGLSDYDMFCTYSILESPMGVENYVATLRLTPVTDGDQTFMEWTAEFDCAPERETELVNNIGGGVFQGGFDALKRVFGGLEHHHHHH | soluble |
| MIPISVLVTNAGTVSFHIKGEYNRDRPSKFSDVFRPVVTWNLTRKCNLKCLHCYINASPEGEDGLTTEEALGLIDEMAEMKIPLIIMSGGEPLMRRDFFELASYARSKGIKLALSTNGTLISESVAKRLKELDFSYVGISLDSYDPEFHDKFRGLNGAFNMTVKGIGNAINVGLNVGLRFTITAKNIHQVDEYMKLALKLGVKRITFYHLSASGRGRELREWMYTLEEYVSFINKMIDYAIKLSGKIEIETTLGQFDGVYIAKKLARNEEELEKYLKFVENSGGCGRKMISIYPNGDVYPCQFIDFYKLGNVREKPLKEIIKNIPDLFINTDKYLKGRYCDKCEYKSACKGGDRARAYYWNEDIYGDDPLCPLKTLHI | not soluble |
| MKGVIMIIDGMADRPLEKLSGRTPLEAASTPNMDRIAESGINGIMDPIKPGVRAGSDTSHLSILGYDPYRVYTGRGPFEAAGVGLDVKPGDIAFRCNFATADEDMIITDRRAGRIRSGTSSIARTINSMTIEGFEDVEIIFRESTGHRAVLVLRGPGLGDKVSDADPKVEGKPPKKIKALDGSPESRKTAEVLNRIVKESYEILRDHPVNTGRIERGEAPANIILPRGAGAVPHVEKFQERYDLKAACIAETGLIKGIGHLTGMDVIDVEGATGGIDTDLESIKNAISSAIAADYDFLLINIDGADEAGHDGDLEGKVRFIERVDSILGDLMGDDIYFILTADHSTPVSVMDHTGDPVPIAITGPEVRVDDVTSFSERAAAAGGLCRIRGSDVMDILLDLMNKKEKFGALEHHHHHH | not soluble |
| APVNWGPGETNDSTTVEPVLDGPYQPTTFNPPVDYWMLLAPTAAGVVVEGTNNTDRWLATILVEPNVTSETRSYTLFGTQEQITIANASQTQWKFIDVVKTTQNGSYSQYGPLQSTPKLYAVMKHNGKIYTYNGETPNVTTKYYSTTNYDSVNMTAFCDFYIIPREEESTCTEYINNGLPPIQNTR | soluble |
| MTWETVIGLEIHVQLNTKSKIFSGASTAFGAEPNAHASVVECALPGVLPVMNREVVEKAIKLGLALDAKINQKNVFDRKNYFYPDLPKGYQISQLDLPIVEHGKLEIVVGDDVKTINVTRAHMEEDAGKSVHEGLNGATGIDLNRAGTPLLEVVSEPEMRSAAEAVAYAKALHSLVTWLDICDGNMAEGSFRVDANVSVRPKGQEEFGTRREIKNLNSFRFLEQAINYEAEAQIEILEDGGKVQQATMLFDPEKGETRVMRLKEDAHDYRYFPDPDLLPVIISDAQMQKAKAEMPELPKEMAARFVADYGVSEYDARLLTASRAQAAYFEEAAKESGQGKLTANWMNGELAAALNKEGMELADSPITAPRLAALVGKIADGTLSSKLAKKAFEAMWAEPEATIAEIIEKHGLQQMTDTGEIEAMVDEVLANNAKAVEQFKSGNEKALNAIVGQVMKASKGKANPAQVQELIKAKLA | not soluble |
| MGHHHHHHSHMGSLPSRRKSLPSPSLSSSVQGQGPVTMEAERSKATAVALGSFPAGGPAELSLRLGEPLTIVSEDGDWWTVLSEVSGREYNIPSVHVAKVSHGWLYEGLSREKAEELLLLPGNPGGAFLIRESQTRRGSYSLSVRLSRPASWDRIRHYRIHCLDNGWLYISPRLTFPSLQALVDHYSELADDICCLLKEPCVLQRAGPLPGKDIPLPVTVQRTPLNWKELDSSLLFSEAATGEESLLSEGLRESLSFYISLNDEAVSLDDA | not soluble |
| METVQDCENKLPPSLKSRLCEIRRYEIIEGPEMDKHIHCVMRALDFVYEDGRGDYHKLYDPLNIIELDKRHDVNLEKCIGECVQVPTSERAHVFYKCLLKSTTGRTFKKVFDLMELKKAGKVPQHQRYTAEFVQIMKDYDKALNC | soluble |
| MAEKFIKHTGLVVPLDAANVDTDAIIPKQFLQKVTRTGFGAHLFNDWRFLDEKGQQPNPDFVLNFSQYQGASILLARENFGCGSSREHAPWALTDYGFKVVIAPSFADIFYGNSFNNQLLPVKLSDAEVDELFALVKANPGIHFDVDLEAQEVKAGEKTYRFTIDAFRRHCMMNGLDSIGLTLQHDDAIAAYEAKQPAFMR | not soluble |
| MKIRESTGKTSSLREVPGQEPRRVADSSGSSFKRHLKEFDHRNHEERIRALVSQIEEQGRKLSQKIDVAELKVYKRLISDFLDEVLHHSHIFSKDSHLDRRGRYKVYATVKKINEELDELTKEVLNAEKDNIRILQRIEDIRGLVLDLML | soluble |
| MDLQSTPLKGVVRSSEDGLFYLFPIQSLSTLQEMKGHLTCAIDVLSNPDESDVEKRLDAVRTLNSLVAALSVNDGDHYDVIDTAFEEIRE | not soluble |
| LDEYQVSQDRLVESEERYRQLVESAPDAVLIHCDGRYVFANPAALRLYGADTADQLLGREITDFVHPNSRQVVAERIKLLYQERSPAPLCEQQIVRLDGTVVDVEVVGIPYSHQGRPAVQAVLREIT | not soluble |
| GMSGDILNDIVAACLELERKASSVFKMFAAHAGSDEARRFWETVADETRHHSAVYERLQERGGRENLPIIIYKPAETLEELEMIGKSIDEQVERYTEAPSSEAACLLGFRLQLYLLHPAFASLCRLTRDASGEDLPDIGYGRYLRRFIDGIGSCGLATAETELLGEALFRLWNEARQLAAQSHFDALTGVMTRAGFFKTVGSLAYAAQRSGSNVGIMLIDLDYFKLVGDNYGHQTGDRILQLVAETITSHLRRSDVVGRYDGDEFVVYLSPVEPASLRTVAENLRRSIEEESARMVPVTASIGVAQGILGTDVDGGIEELVRLADECLMQAKYTGKNKVVVK | soluble |
| MSELLAGTKLINQDSEELDAGEHLKGKVVGLYFSASWCPPCRQFTPKLTRFFDEIRKKHPEFEVVFVSRDREDGDLREYFLEHMGAWTAIPFGTPRIQELLEQYEVKTIPSMRIVKPNGDVVVQDARTEIQDKGNDPEALWEEWLAFYD | not soluble |
| MNGIKTGLGITPGEHIISADSALSRNIRQCFCLSCHGRLILQTDAQGAWFEHDLYALSEQQKAACVVLNPEKSHPYIEDMEMFLSPLPVVLEWHCMMCEQFFHGKKFCEACGTGIYCRAVCTKSVYSYQPDLFQDCGGAST | soluble |
| MPAPLSIVIPTLQAESSLPRLLEALIEGLPNGLIREVIVSDGGSQDATRAIAEAAGAQVLNGPPSRGGQLRHGCDAARGDWLLVLHADTLPDPGWAGVVADHIAAREDAACFRLAFRARGPGAAWVAGWANLRTRLFGLPYGDQGLLIRRRDYQTAGGYPDQLLMEDVHLVRALSRAPVLLPHRALTGAERYLRSGWLRRGARNLWTLMRYFAGTDPEALARAYRRLEHHHHHH | not soluble |
| MGSDKIHHHHHHMVAQIQELDALHWVKTRSSLDPNQSTFLTWTGKIYAFIPGEKRKLLFKMVGVSVSRCLPTDEGNWDFTSRELTYYLNPENDEILRKWENPWTGETVPVLHVANNPVQGHFQGKFPAQVEGETTTFVFDIFPTYPNPLAEETQFAEYSPYPTYQAAELFKLTVPTADLFNAELPAVSQLRLSWDRIGQWLPWMKMGDRPGNLIYSAFGSKVNGLTELPHILQEEINTRVPLYKQAPKTFSDGEDMTSWLYFQKHFQAYLAGDIFPLPADEEV | not soluble |
| MGSDKIHHHHHHMLDLKSYREKELASYDLDVELFNEFNFSVYNVMPLRKAFLISTDKGEKILKKIDYTIEEFKFVLAAVNYIKNENEFNRIIDFNKTQSGEYYCIKNGDLYCVMDMIEGKECEFSNPVDLSISSFGLGQLHSASEGFRYSKIASKNICGKMIKGFKRKKEEVNFLKKMVNLYESLNEFDEIFIKNVDYYLEQIDKSIDIMNKSQYYKLCSEEDKIVLCHHDLAHHNIIIKDEEAYFIDFDYAIIDLKVHDLSNIISKAAKVFNYSIDNSKIIISNYCKSNTLSKNEMEVLFGMLSFPEDFYEIVKSYYTKRKDWSNEEFINKMKRKMANEENRVEFLKNFKEDLKI | not soluble |
| MNKIIISIGREFGSGGRRIGELLAKELEVPCYDRHLIEEAACRSGFETKELEEADEMKANRFLFKVPAKSNQYTGYGKPMNDTLFAIQSELIRKYADAGSCVIVGRCADKVLEKQEGLISVFIYAPLEARVEEIRRRYETDGEEALYLVRQADKIRRNYYNYYAKKKWGDRSSYDLMIDSSHFTDREVAAMIRAVSEERKAEWEENKFSTPQG | not soluble |
| MKLKDCVMIKKIFALPVIEQISPVLSRRKLDELDLIVVDHPQVKASFALQGAHLLSWKPAGEEEVLWLSNNTPFKNGVAIRGGVPVCWPWFGPAAQQGLPAHGFARNLPWTLKSHHEDADGVALTFELTQSEETKKFWPHDFTLLAHFRVGKTCEIDLESHGEFETTSALHTYFNVGDIAKVSVSGLGDRFIDKVNDAKENVLTDGIQTFPDRTDRVYLNPQDCSVINDEALNRIIAVGHQHHLNVVGWNPGPALSISMGDMPDDGYKTFVCVETAYASETQKVTKEKPAHLAQSIRVAKRLEHHHHHH | not soluble |
| MTAEPMSESKLNTLVQKLHDFLAHSSEESEETSSPPRLAMNQNTDKISGSGSNSDMMENSKEEGTSSSEKSKSSGSSRSKRKPSIVTKYVESDDEKPLDDETVNEDASNENSENDITMQSLPKEDGLHGIVSCTACGQQVNHFQKDSIYRHPSLQVLICKNCFKYYMSDDISRDSDGMDEQCRWCAEGGNLICCDFCHNAFCKKCILRNLGRKELSTIMDENNQWYCYICHPEPLLDLVTACNSVFENLEQLLQQNKKKIKVDSEKSNKVYEHTSRFSPKKTSSNCNGEEKKLDDSCSGSVTYSYSALIVPKEMIKKAKKLIETTANMNSSYVKFLKQATDNSEISSATKLRQLKAFKSVLADIKKAHLALEEDLNSEFRAMDAVNKEKNTKEHKVIDAKFETKARKGEKPCALEKKDISKSEAKLSRKQVDSEHMHQNVPTEEQRTNKSTGGEHKKSDRKEEPQYEPANTSEDLDMDIVSVPSSVPEDIFENLETAMEVQSSVDHQGDGSSGTEQEVESSSVKLNISSKDNRGGIKSKTTAKVTKELYVKLTPVSLSNSPIKGADCQEVPQDKDGYKSCGLNPKLEKCGLGQENSDNEHLVENEVSLLLEESDLRRSPRVKTTPLRRPTETNPVTSNSDEECNETVKEKQKLSVPVRKKDKRNSSDSAIDNPKPNKLPKSKQSETVDQNSDSDEMLAILKEVSRMSHSSSSDTDINEIHTNHKTLYDLKTQAGKDDKGKRKRKSSTSGSDFDTKKGKSAKSSIISKKKRQTQSESSNYDSELEKEIKSMSKIGAARTTKKRIPNTKDFDSSEDEKHSKKGMDNQGHKNLKTSQEGSSDDAERKQERETFSSAEGTVDKDTTIMELRDRLPKKQQASASTDGVDKLSGKEESFTSLEVRKVAETKEKSKHLKTKTCKKVQDGLSDIAEKFLKKDQSDETSEDDKKQSKKGTEEKKKPSDFKKKVIKMEQQYESSSDGTEKLPEREEICHFPKGIKQIKNGTTDGEKKKKK | soluble |
